Measured values taken from patent US20220054648A1.

Legend:
[1] = biological target: human Trop-2 (human) (UniProt P09758); assay: cell binding assay on NCI-N87 cells, anti-mouse-HRP secondary, luminescence
[2] = biological target: human Trop-2 (human) (UniProt P09758); assay: cell binding assay (cell line not given)

Sequence of human Trop-2 (human) (P09758 27-323): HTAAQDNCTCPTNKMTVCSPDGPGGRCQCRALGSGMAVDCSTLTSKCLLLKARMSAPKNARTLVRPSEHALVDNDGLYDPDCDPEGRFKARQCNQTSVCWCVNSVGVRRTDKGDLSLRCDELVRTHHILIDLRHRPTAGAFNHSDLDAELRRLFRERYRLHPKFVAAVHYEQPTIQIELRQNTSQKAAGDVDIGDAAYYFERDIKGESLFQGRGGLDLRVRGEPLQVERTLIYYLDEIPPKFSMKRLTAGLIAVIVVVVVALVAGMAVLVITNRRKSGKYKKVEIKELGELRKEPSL

| BMax (relative luminescent units) [1] | Kd [2] [nM] | Substance |
| --- | --- | --- |
| 8470 | – | 162-46.2 murine monoclonal antibody against human Trop-2 |
| 6020 | – | MAB650 murine monoclonal antibody against human Trop-2 (R&D Systems) |
| – | 1.2 | hRS7-CL2-SN-38 (anti-Trop-2 ADC, hRS7 IgG conjugated to CL2-SN-38) (antibody) |
| – | 1.2 | hRS7-CL2A-SN-38 (anti-Trop-2 ADC, hRS7 IgG conjugated to CL2A-SN-38) (antibody) |
